In patent US20170073659A1 (MEDICINAL BIOCONVERGENCE RESEARCH CENTER, published 2017):

Target: T1, KRS WT-myc (C-terminus myc tagged KRS wild type) (human, UniProt Q15046 1-597)
T1 construct: Overexpressed in HCT116 cells and tested in lysate; The N-terminus may be cleaved in the cells under starvation; also called KRS-myc
Assay: anti-myc immunoprecipitation from starved cells, western blot for syntenin-1 (FIG. 3d)
Method: FIG. 3d illustrates results investigating the interaction between KRS and syntenin-1 using D12A mutant. C-terminus myc tagged KRS WT and D12A mutant were transfected and overexpressed in cells, and after 24 hr, the transfectants were incubated in serum starvation media for 1 hr, followed by precipitation using anti-myc antibody, and then KRS-bound syntenin-1 was monitored by western blot (mock: control with empty vector introduced into cells).
The cells were lysed with 50 mM Tris-HCl (pH 7.4) buffer containing 150 mM NaCl, 10 mM NaF, 12 mM beta-glycerophosphate, 1 mM EDTA, 1% NP-40, 10% glycerol, and protease inhibiting agent. Then, the supernatant was dissolved in SDS sample buffer, followed by separation using SDS-PAGE. For immunoblotting of endogenous KRS, anti-KRS antibody was used. Antibodies against Hsp90, syntenin-1, GFP, myc, caspase-3, -6, -8, -9, while syntenin-1 were purchased from Santa Cruz, and antibodies against alix were purchased from Cell Signaling. The anti-KRS antibody was manufactured by ordinary procedures in which KRS protein (Genbank Accession No. NP_005539.1) represented by SEQ ID NO: 2 was injected into New Zealand white rabbits to induce immune response and their antibodies were obtained. […]

T1 sequence (Q15046 whole entry): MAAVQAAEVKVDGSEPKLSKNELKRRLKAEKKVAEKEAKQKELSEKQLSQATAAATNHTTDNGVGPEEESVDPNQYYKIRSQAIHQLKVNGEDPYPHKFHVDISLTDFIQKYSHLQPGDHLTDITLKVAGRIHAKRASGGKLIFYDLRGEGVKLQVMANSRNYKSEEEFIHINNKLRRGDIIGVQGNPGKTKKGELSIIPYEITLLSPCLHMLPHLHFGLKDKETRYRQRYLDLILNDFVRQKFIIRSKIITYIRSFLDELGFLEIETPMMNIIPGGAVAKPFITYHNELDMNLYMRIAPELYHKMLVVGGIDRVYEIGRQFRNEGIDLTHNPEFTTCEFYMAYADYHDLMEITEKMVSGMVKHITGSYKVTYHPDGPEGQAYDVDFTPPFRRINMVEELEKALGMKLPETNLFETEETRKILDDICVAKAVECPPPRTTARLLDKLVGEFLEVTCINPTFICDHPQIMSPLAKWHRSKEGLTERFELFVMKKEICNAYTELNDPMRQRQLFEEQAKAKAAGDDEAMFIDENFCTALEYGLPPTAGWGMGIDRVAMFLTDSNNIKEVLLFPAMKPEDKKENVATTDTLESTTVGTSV

- binding result: binds
B1: syntenin-1, endogenous in HCT116 cells (other)
chain: SLYPSLEDLKVDKVIQAQTAFSANPANPAILSEASAPIPHDGNLYPRLYPELSQYMGLSLNEEEIRANVAVVSGAPLQGQLVARPSSINYMVAPVTGNDVGIRRAEIKQGIREVILCKDQDGKIGLRLKSIDNGIFVQLVQANSPASLVGLRFGDQVLQINGENCAGWSSDKAHKVLKQAFGEKITMTIRDRPFERTITMHKDSTGHVGFIFKNGKITSIVKDSSAARNGLLTEHNICEINGQNVIGLKDSQIADILSTSGTVVTITIMPAFIFEHIIKRMAPSIMKSLMDHTIPEV
